Each substance was assayed against GST-tagged Nup358-IR (Nup358 internal repeat/E3 ligase domain) (UniProt P49792) (assay: SPR).

Kd [nM]	Substance
7	SUMO-1 modified His-RanGAP1-NΔ419 (from UniProt P46061 420-589; P63165 1-97)
20	SUMO-1/2 chimera modified His-RanGAP1-NΔ419 (from UniProt P46061 420-589; P63165 1-30; P55854 26-46; P63165 52-97)
36	SUMO-2 modified His-RanGAP1-NΔ419 (from UniProt P46061 420-589; P55854 1-92)

— paper PMC2668917
